According to patent publication US7300651:

Target: anti-idiotype antibody 3H1
Test: Ab1-Ab2 binding inhibition assays; competitor 8019

Chain of anti-idiotype antibody 3H1 (VL, as listed by the source, chain 1 of 2): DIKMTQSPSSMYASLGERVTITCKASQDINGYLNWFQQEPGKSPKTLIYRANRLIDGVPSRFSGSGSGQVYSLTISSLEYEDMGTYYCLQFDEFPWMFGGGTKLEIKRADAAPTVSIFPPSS
Chain of anti-idiotype antibody 3H1 (VH, as listed by the source, chain 2 of 2): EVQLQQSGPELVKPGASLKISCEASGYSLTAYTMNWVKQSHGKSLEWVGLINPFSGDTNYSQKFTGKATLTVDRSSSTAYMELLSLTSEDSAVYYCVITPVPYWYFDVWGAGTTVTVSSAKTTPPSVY

Question: Which inhibition does the source give for control normal serum pool (antibody) here?
Answer: 10 to 15%
